One assay concerns the target Active MMP-2. Kind of assay: enzyme inhibition (fluorogenic substrate, Ki by the Morrison equation); Active MMP-2 (0.76 nM) with FLAG-TIMP-1 or FLAG-T2G (0.17 to 13.5 nM), 2 h at 27 C; 50 mM Tris-HCl pH 7.5, 150 mM NaCl, 5 mM CaCl2; substrate MCA-Pro-Leu-Gly-Leu-Dpa-Ala-Arg-NH2.
The target of assay [1] is Endogenous LRP-1 of mouse cortical neurons (alpha-chain and beta-chain) (mouse (endogenous in primary cortical neurons)).
Assay [2] deals with HA-tagged mini LRP-IV (LRP-1 mini-receptor with ligand-binding domain IV).
Assay [3] deals with HA-tagged mini LRP-II (LRP-1 mini-receptor with ligand-binding domain II).
The target of assay [4] is Endogenous LRP-1 of mouse cortical neurons (alpha-chain and beta-chain) (mouse (endogenous in primary cortical neurons)). The source holds these as a separate data set.
The target of assay [5] is Recombinant human LRP-1 Fc-tagged mini-domain II (human). Kind of assay: SPR; Fc-DII or Fc-DIV captured by anti-Fc antibody immobilised on a CMD500m chip (around 8 fmol/mm^2); TIMP-1 or EGF 5 to 80 nM injected sequentially (single-cycle kinetics, 2 min at 50 ul/min); 25 C; HBS (50 mM HEPES-NaOH pH 7.4, 150 mM NaCl, 0.005% Tween-20); corrected for Fc-coated flow cell and blank run; 1:1 titration kinetic model; Biacore T200.

The target in assay [6] is Recombinant human LRP-1 Fc-tagged mini-domain IV (human). The description is as above.

Substance “FLAG-tagged full-length TIMP-1 T2G mutant (from UniProt P01033 24-207) (natural protein)” had a Ki in the assay with Active MMP-2 of 18.9 nM.

On to “FLAG-tagged wild type TIMP-1 (from UniProt P01033 24-207) (natural protein)”, for which the inhibition constant Ki with Active MMP-2 came to 0.09 nM. The substance also returned a growth cone volume of cortical neurons after 30 min with 10 nM TIMP-1; the increase is prevented by RAP or blocking LRP-1 antibodies in assay [1] of 2.8 fold.

With “Fluorescent TIMP-1 (eFluor-conjugated recombinant TIMP-1) (from UniProt P01033 24-207) (natural protein)”, the internalisation of surface-bound fluo-TIMP-1 (10 nM) by DIV-overexpressing CHO cells after 2 h at 37 C (pronase-resistant fluorescence); significantly impeded by 500 nM RAP in assay [2] was 50%. Besides, the internalisation of surface-bound fluo-TIMP-1 (10 nM) by DII-overexpressing CHO cells after 2 h at 37 C (pronase-resistant fluorescence); significantly impeded by 500 nM RAP in assay [3] is 50%. Also, the inhibition by 500 nM RAP of the internalisation of fluo-TIMP-1 by cortical neurons (37 C, pronase-resistant fluorescence) in assay [4] was found to be 2 fold.

With “Human recombinant TIMP-1 (tissue inhibitor of metalloproteinases-1) (from UniProt P01033 24-207) (natural protein)”, in assay [5], the equilibrium dissociation constant (Kd) is 11.2 nM, the koff was 0.021 s⁻¹ and the kon amounted to 1.87e+06 M⁻¹ s⁻¹. Also, in assay [6], the Kd was determined as 52.4 nM, the off-rate constant (koff) was determined as 0.0135 s⁻¹ and the on-rate constant (kon) was determined as 255000 M⁻¹ s⁻¹.

What is called Ki is the dissociation constant of the complex between target and ligand, obtained from inhibition or displacement. The low end stands for tighter binding, the high end for weaker binding. By Kd is commonly meant the equilibrium constant for the complex coming apart. The koff is a measure of how fast the partners let go of each other. Usually kon stands for the second-order rate constant of association.

These data come from paper PMC4116228.
